In PMC3547664:

System: T1, PhoB (Bacteroides fragilis YCH46), ORF:3d02aa67
T1 sequence: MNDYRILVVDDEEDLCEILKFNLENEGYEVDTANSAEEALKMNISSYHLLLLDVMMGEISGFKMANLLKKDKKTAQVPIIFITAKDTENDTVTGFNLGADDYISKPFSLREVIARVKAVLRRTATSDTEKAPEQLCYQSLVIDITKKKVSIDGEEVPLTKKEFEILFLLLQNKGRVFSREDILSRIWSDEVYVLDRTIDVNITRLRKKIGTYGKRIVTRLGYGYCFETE
Assay: EMSA
Conditions: EMSA: 50 mM Tris-HCl pH 7.5, 50 mM KCl, 10 mM MgCl2, 0.5 mM EDTA, 30 min at 25 C; 5% polyacrylamide gel. PS B and PS E promoter fragments (S55/S56, S57/S58 …)

In the case of “GGAATGGCTGGTAATCAAGTGCCTTGACTGCATCTGCATTGGCTTCTCCGTATTGAAATGATGGAGCAGCATAAGTGACTTGGCATTGAACTCCTGTAACATAATCCGGATTTTCTCCATTAAGATTATATTTAAGAGGTACGTTGGACGATGTGAAGATTAACGACGTCAACGAAGTAGTACCTGTTCCACCGAAAATATTGCCGGTAGCATAAGGTACTTCTATATCGTCGTTATCCGATGCCACTTTGATAAACTTAATATCGATGCGTGATACAATGCGTTCCAGA (double strand) [BF3397 internal fragment]”, the binding is reported as “no binding”.
